Data reported in publication PMC9159282, “Structural basis of human LRG1 recognition by Magacizumab, a humanized monoclonal antibody with therapeutic potential” (Acta Crystallographica. Section D, Structural Biology, 2022).

Molecular target: T1, 15-amino-acid peptide corresponding to the epitope in LRG1 (human)
T1 construct: leucine-rich alpha-2-glycoprotein 1 (LRG1), human; Gln5Pep is Gln225 of LRG1
T1 chain: GNKLQVLGKDLLLPQ
Assay: crystal structure; co-crystallization at MagaFab:peptide molar ratios of 1:2 and 1:5, MagaFab 12 mg/ml, 0.2 M NaCl, 0.1 M bis-Tris pH 5.5, 25%(w/v) PEG 3350; two Fab and two peptide molecules per asymmetric unit
Details: both partners purified

binding result: binds
B1: Magacizumab Fab fragment (Fab, V domains shown)
VH: QVQLVQSGAEVKKPGSSVKVSCKASGYTFSGYWMNWVRQAPGQGLEWIGQIYPGDGDTNYNGKFKGRVTITADKSTSTAYMELSSLRSEDTAVYYCARSITTVVLDYWGQGTTVTVSS
VL: DIVLTQSPDSLAVSLGERATISCRASQSVSTSGYSFMHWYQQKPGQPPKLLIKYASNLESGVPARFSGSGSGTDFTLTISSLQPEDFATYYCQHSWEMPLTFGQGTKLEIK
notes: heavy (VH) chain of MagaFab is chain B (second copy: chain D) of the deposited structure PDB 7q4q; light (VL) chain of MagaFab is chain A (second copy: chain C) of the deposited structure PDB 7q4q; Fab of a humanized IgG4 derived from the mouse monoclonal antibody 15C4; Observed mass of the Fab 47 461 Da, computed 47 412 Da; also called MagaFab; source: Magacizumab: CHO cell-based expression …
